{"source": "paper doi:10.1101/2022.06.19.496727", "target": "8His-Smc3 with the J-head reporter cysteine (wild type trimer) (S. cerevisiae) (UniProt P47037)", "test": "cross-linking"}
{"substance": "Smc1 with the J-head reporter cysteine (wild type trimer) (from UniProt P32908 1-1225) (natural protein)", "values": [{"measurement": "percent of molecules cross-linked", "result": 70, "unit": "%"}]}
